Experimental findings from article PMC11214414 are described below.

Assay in all cases: EMSA
For orientation: Mobility shift assays separate free from complexed probe on a gel.

Series [1] addresses HsASCC1 GDDG mutant (Homo sapiens, UniProt Q8N9N2-2 1-357, K76D;R77D).
The target in series [2] is T1, HsASCC1 WT (Homo sapiens, UniProt Q8N9N2-2).
In series [3] the target is T1, HsASCC1 WT. The source holds these as a separate data set.

Where two headings read alike, the source gives them in different places.

With UUUUCGCGUUUU (ssRNA) [CGCG RNA], the binding result in series [1] is given as “no binding”; in series [2] it was “binds”.

Turning to TTTTCGCGTTTT (ssDNA) [CGCG DNA], the binding result in series [3] is listed as “no binding”.
